Test results taken from the supplement of paper PMC10567573.

B1: DFFB (parent)
chain: KLNCDPSRIYKPQTRLKRKQPVRK

Variants of: B1
Assay: protein stability index of a GFP-peptide fusion (GPS, HEK-293T) (PSI 1-6); higher = more stable
Settings: c terminus: a fixed tail appended
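Further: lentivirally expressed fusions sorted by FACS into six bins by GFP to DsRed ratio, PSI derived from sequencing read proportions per bin multiplied by bin number.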

Protein stability index of substitutions, site by site:
K19: A 3.66
S7: F 3.34, G 3.5, Q 3.87, P 3.19, D 3.36, N 3.55, Y 2.73, K 3.21, V 3.21, R 2.98, M 3.07, I 3.41, W 3.78, A 3.28, C 3.52, E 3.53, H 3.21, T 3.46, L 3.73
P12: K 3.46, S 3.89, H 3.13, G 3.3, W 3.21, L 2.86, I 2.85, E 4.24, M 3.31, R 3.33, D 3.09, C 3.21, N 4.49, Q 2.24, F 3.38, T 3.69, Y 2.79, A 3.47
R18: V 3.89, G 3.28, N 3.23, C 3.43, S 3.37, H 3.13, A 2.94, I 3.32, D 3.34, Y 3.05, M 3.68, L 3.62, P 3.83, Q 3.4, W 3.03, T 3.96, K 3.76, F 3.44, E 4.21
R15: Q 2.67, F 3.25, D 3.09, M 3.21, S 3.96, L 2.69, V 3.49, G 3.58, W 3.02, C 3.24, H 3.59, K 3.24, Y 2.17, P 3.6, T 3.76, A 2.82, E 3.68, I 3.52, N 3.26
D5: H 3.48, A 3.46, R 3.34, S 3.35, L 3.06, E 2.9, I 2.74, V 2.98, Y 3.75, F 3.08, P 3.25, G 3.35, N 3.96, K 3.8, W 2.71, M 2.71, Q 3.32, C 4.16, T 2.92
L16: R 3.48, T 4.05, I 3.67, V 3.88, N 3.85, Q 3.9, G 4.16, D 2.92, C 2.95, E 4.44, H 3.9, S 3.6, A 3.34, M 3.23, W 3, Y 3.77, F 2.8, P 3.83, K 3.07
N3: W 3.21, A 4.21, C 3.73, P 3.97, F 3.03, Y 3.29, I 2.89, R 4.24, M 3.19, L 3.06, E 4.44, S 4.17, G 4.4, D 4.07, T 3.96, K 4.07, Q 3.53, H 3.75, V 3.96
K1: H 1.93, I 2.06, Y 3.24, V 3.57, T 3.87, P 3.54, Q 3.37, W 3.65, L 3.8, M 2.65, S 2.92, N 3.47, R 4.11
K11: E 4.3, L 2.99, V 3.95, P 3.15, F 3.09, T 3.2, N 2.98, S 2.89, C 3.9, M 3.02, I 3.16, A 4.01, D 3.21, G 3.17, R 3.53, Y 3.94, W 3.3, H 2.94, Q 2.07
T14: R 3.52, E 3.28, M 2.64, I 3.34, Y 3.49, A 3.56, N 3.58, D 3.28, L 3.91, V 3.51, K 3.54, W 3.95, P 3.11, S 3.19, H 3.77, C 3.61, G 3.49, Q 3.31, F 2.68
Y10: N 3.57, H 3.86, M 3.38, Q 2.75, K 3.21, I 3.6, R 3.56, C 3.62, V 2.94, G 2.28, F 2.58, W 3.47, T 3.35, L 3.84, E 3.56, P 3.72, S 4.16, D 3.55, A 2.92
K17: L 2.14, V 3.25, G 4.14, S 3.35, D 2.17, W 3.19, P 3, Y 3.68, I 3.21, M 3.45, F 3.45, N 3.21, T 3.14, R 3.18, Q 2.9, H 2.55, E 3.42, A 2.98, C 3.38
I9: N 4.01, C 4.01, F 3.83, A 3.57, Q 3.9, M 3.3, H 3.31, S 2.51, V 3.52, R 2.91, D 4.04, G 3.47, L 3.81, E 3.93, K 3.84, Y 3.32, W 2.82, T 3.31
R8: T 2.81, H 3.61, G 3.83, Y 2.77, E 4.21, N 3.38, C 3.63, W 3.29, V 2.94, K 4, A 3.84, L 2.9, P 3.58, M 3.23, Q 3.57, F 3.55, S 3.2, D 3.63, I 2.93
P6: F 2.92, L 3.12, I 3.11, E 4.13, K 4.03, M 3.16, Q 3.62, R 3.7, V 2.89, Y 3.5, N 3.79, C 3.22, W 3.08, T 3.56, S 3.71, H 3.39, A 3.45, G 3.44, D 4.05
L2: Q 4.16, V 4.01, R 4.01, A 4.27, I 3.2, F 3.96, K 2.28, M 4.09, W 2.73, E 4.52, H 2.95, Y 3.55, D 4.89, G 4.94, C 3.55, P 4.57, T 4.12, S 4.16, N 4.5
C4: T 3.62, N 3.74, A 3.75, E 3.65, G 2.77, L 3.24, Q 3.78, K 3.58, S 3.66, P 4.03, M 2.35, W 3.56, D 3.88, F 3.5, H 3.5, I 2.73, Y 3.51, R 4.12, V 4.06
Q13: W 3.6, R 3.08, P 3.76, N 3, Y 3.46, I 3.24, G 3.56, C 3.56, K 4.12, T 3.66, E 4.16, V 3.8, A 4.01, H 4.35, S 3.44, D 3.83, L 3.09, M 3.51
